Data on two molecules can be found in paper PMC2711566.

The target in one test is GST. Put plainly: native gel or EMSA.
In test [1] the target is T1, recombinant TIP47 (human), O60664.
T1 chain: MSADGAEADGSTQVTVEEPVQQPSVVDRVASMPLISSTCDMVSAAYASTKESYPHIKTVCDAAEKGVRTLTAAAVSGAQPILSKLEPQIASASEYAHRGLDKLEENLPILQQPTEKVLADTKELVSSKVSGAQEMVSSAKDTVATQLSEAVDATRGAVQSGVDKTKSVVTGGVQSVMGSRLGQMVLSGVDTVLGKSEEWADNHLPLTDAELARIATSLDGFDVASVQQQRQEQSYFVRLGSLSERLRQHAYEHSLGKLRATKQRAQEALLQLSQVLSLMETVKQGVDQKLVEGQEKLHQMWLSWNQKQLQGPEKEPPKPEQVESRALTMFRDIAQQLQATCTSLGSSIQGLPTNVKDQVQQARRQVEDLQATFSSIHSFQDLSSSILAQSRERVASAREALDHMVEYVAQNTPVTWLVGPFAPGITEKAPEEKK
Put plainly: SEC. The following applies: remark: other sources report otherwise.

Take GST (natural protein): the stoichiometry N in the test with GST came out at 2.

B1: recombinant TIP47, O60664 1-434 (natural protein)
chain: MSADGAEADGSTQVTVEEPVQQPSVVDRVASMPLISSTCDMVSAAYASTKESYPHIKTVCDAAEKGVRTLTAAAVSGAQPILSKLEPQIASASEYAHRGLDKLEENLPILQQPTEKVLADTKELVSSKVSGAQEMVSSAKDTVATQLSEAVDATRGAVQSGVDKTKSVVTGGVQSVMGSRLGQMVLSGVDTVLGKSEEWADNHLPLTDAELARIATSLDGFDVASVQQQRQEQSYFVRLGSLSERLRQHAYEHSLGKLRATKQRAQEALLQLSQVLSLMETVKQGVDQKLVEGQEKLHQMWLSWNQKQLQGPEKEPPKPEQVESRALTMFRDIAQQLQATCTSLGSSIQGLPTNVKDQVQQARRQVEDLQATFSSIHSFQDLSSSILAQSRERVASAREALDHMVEYVAQNTPVTWLVGPFAPGITEKAPEEKK
Take B1: the stoichiometry N in test [1] turned out to be 3.
